B1: 3H9-VH2-VL0 (antibody, human IgG1, kappa, V domains shown)
VH: QVQLVQSGAEVKKPGASVKVSCKASGYTFSFYNMHWVRQAPGQGLEWIGLIYPDNGDTSYNQKFKGRATLTADTSTSTVYMELSSLRSEDTAVYYCARGGLDYWGQGTTVTVSS
VL: DIQMTQSPSSLSASVGDRVTITCRASENIYSNLAWYQQKPGKAPKLLIYAATNLADGVPSRFSGSGSGTDFTLTISSLQPEDFATYYCQHFWGTPYTFGGGTKVEIKR
notes: humanized IgG1
B2: 3H9-VH3-VL2 (antibody, human IgG1, kappa)
heavy: not shown
light: DIQMTQSPSSLSASVGDRVTITCRASENIYSNLAWYQQKPGKSPKLLVYAATNLADGVPSRFSGSGSGTDYTLTISSLQPEDFATYYCQHFWGTPYTFGGGTKVEIKRTVAAPSVFIFPPSDEQLKSGTASVVCLLNNFYPREAKVQWKVDNALQSGNSQESVTEQDSKDSTYSLSSTLTLSKADYEKHKVYACEVTHQGLSSPVTKSFNRGEC
notes: humanized IgG1
B3: 3H9-VH3-VL3 (antibody, human IgG1, kappa)
heavy: not shown
light: DIQMTQSPSSLSASVGDRVTITCRASENIYSNLAWYQQKPGKSPKLLVYAATNLADGVPSRFSGSGSGTDYTLTISSLQPEDFATYYCQHFWGTPYTFGGGTKLEIKRTVAAPSVFIFPPSDEQLKSGTASVVCLLNNFYPREAKVQWKVDNALQSGNSQESVTEQDSKDSTYSLSSTLTLSKADYEKHKVYACEVTHQGLSSPVTKSFNRGEC
notes: humanized IgG1
B4: 3H9-VH2-VL3 (antibody, human IgG1, kappa)
heavy: not shown
light: DIQMTQSPSSLSASVGDRVTITCRASENIYSNLAWYQQKPGKSPKLLVYAATNLADGVPSRFSGSGSGTDYTLTISSLQPEDFATYYCQHFWGTPYTFGGGTKLEIKRTVAAPSVFIFPPSDEQLKSGTASVVCLLNNFYPREAKVQWKVDNALQSGNSQESVTEQDSKDSTYSLSSTLTLSKADYEKHKVYACEVTHQGLSSPVTKSFNRGEC
notes: humanized IgG1
B5: 3H9-VH2-VL2 (antibody, human IgG1, kappa)
heavy: not shown
light: DIQMTQSPSSLSASVGDRVTITCRASENIYSNLAWYQQKPGKSPKLLVYAATNLADGVPSRFSGSGSGTDYTLTISSLQPEDFATYYCQHFWGTPYTFGGGTKVEIKRTVAAPSVFIFPPSDEQLKSGTASVVCLLNNFYPREAKVQWKVDNALQSGNSQESVTEQDSKDSTYSLSSTLTLSKADYEKHKVYACEVTHQGLSSPVTKSFNRGEC
notes: humanized IgG1
B6: 3H9-VH3-VL0 (antibody, human IgG1, kappa, V domains shown)
VH: QVQLVQSGAEVKKPGASVKVSCKASGYTFSFYNMHWVKQAPGQGLEWIGLIYPDNGDTSYNQKFKGRATLTADTSTSTVYMELSSLRSEDTAVYYCARGGLDYWGQGTTVTVSS
VL: DIQMTQSPSSLSASVGDRVTITCRASENIYSNLAWYQQKPGKAPKLLIYAATNLADGVPSRFSGSGSGTDFTLTISSLQPEDFATYYCQHFWGTPYTFGGGTKVEIKR
notes: humanized IgG1
B7: 3H9-VH2-VL1 (antibody, human IgG1, kappa, V domains shown)
VH: QVQLVQSGAEVKKPGASVKVSCKASGYTFSFYNMHWVRQAPGQGLEWIGLIYPDNGDTSYNQKFKGRATLTADTSTSTVYMELSSLRSEDTAVYYCARGGLDYWGQGTTVTVSS
VL: DIQMTQSPSSLSASVGDRVTITCRASENIYSNLAWYQQKPGKSPKLLIYAATNLADGVPSRFSGSGSGTDYTLTISSLQPEDFATYYCQHFWGTPYTFGGGTKVEIKR
notes: humanized IgG1
B8: 3H9-VH3-VL1 (antibody, human IgG1, kappa, V domains shown)
VH: QVQLVQSGAEVKKPGASVKVSCKASGYTFSFYNMHWVKQAPGQGLEWIGLIYPDNGDTSYNQKFKGRATLTADTSTSTVYMELSSLRSEDTAVYYCARGGLDYWGQGTTVTVSS
VL: DIQMTQSPSSLSASVGDRVTITCRASENIYSNLAWYQQKPGKSPKLLIYAATNLADGVPSRFSGSGSGTDYTLTISSLQPEDFATYYCQHFWGTPYTFGGGTKVEIKR
notes: humanized IgG1
B9: 3C7-VH1-VL2 (antibody, human IgG1, kappa, V domains shown)
VH: QVQLVQSGAEVKKPGASVKVSCKASGYIFTNYYIHWVRQAPGQGLEWMGAIYPDNGDTSYNQRFKVRATLTADTSTSTVYMELSSLRSEDTAVYYCARAFTYWGQGTTVTVSS
VL: DIQMTQSPSSLSASVGDRVTITCGASENIYGALNWYQRKPGKAPKLLIYGATNLADGVPSRFSGSGSGTDYTLTISSLQPEDFATYYCQNVLSTPYTFGGGTKLEIKR
notes: humanized IgG1
B10: 3C7-VH0-VL3 (antibody, human IgG1, kappa, V domains shown)
VH: QVQLVQSGAEVKKPGASVKVSCKASGYTFTNYYIHWVRQAPGQGLEWMGAIYPDNGDTSYNQRFKVRATLTADTSTSTVYMELSSLRSEDTAVYYCARAFTYWGQGTTVTVSS
VL: DIQMTQSPSSLSASVGDRVTITCGASENIYGALNWYQRKPGKSPKLLIYGATNLADGVPSRFSGSGSGTDYTLTISSLQPEDVATYYCQNVLSTPYTFGGGTKLEIKR
notes: humanized IgG1
B11: 3C7-VH2-VL1 (antibody, human IgG1, kappa, V domains shown)
VH: QVQLVQSGAEVKKPGASVKVSCKASGYIFRNYYIHWVRQAPGQGLEWMGAIYPDNGDTSYNQRFKVRATLTADTSTSTVYMELSSLRSEDTAVYYCARAFTYWGQGTTVTVSS
VL: DIQMTQSPSSLSASVGDRVTITCGASENIYGALNWYQQKPGKAPKLLIYGATNLADGVPSRFSGSGSGTDYTLTISSLQPEDVATYYCQNVLSTPYTFGGGTKVEIKR
notes: humanized IgG1
B12: 3C7-VH0-VL0 (antibody, human IgG1, kappa, V domains shown)
VH: QVQLVQSGAEVKKPGASVKVSCKASGYTFTNYYIHWVRQAPGQGLEWMGAIYPDNGDTSYNQRFKVRATLTADTSTSTVYMELSSLRSEDTAVYYCARAFTYWGQGTTVTVSS
VL: DIQMTQSPSSLSASVGDRVTITCRASENIYGALNWYQQKPGKAPKLLIYGATNLADGVPSRFSGSGSGTDFTLTISSLQPEDFATYYCQNVLSTPYTFGGGTKVEIKR
notes: humanized IgG1
B13: 3C7-VH2-VL0 (antibody, human IgG1, kappa, V domains shown)
VH: QVQLVQSGAEVKKPGASVKVSCKASGYIFRNYYIHWVRQAPGQGLEWMGAIYPDNGDTSYNQRFKVRATLTADTSTSTVYMELSSLRSEDTAVYYCARAFTYWGQGTTVTVSS
VL: DIQMTQSPSSLSASVGDRVTITCRASENIYGALNWYQQKPGKAPKLLIYGATNLADGVPSRFSGSGSGTDFTLTISSLQPEDFATYYCQNVLSTPYTFGGGTKVEIKR
notes: humanized IgG1
B14: 3C7-VH0-VL1 (antibody, human IgG1, kappa, V domains shown)
VH: QVQLVQSGAEVKKPGASVKVSCKASGYTFTNYYIHWVRQAPGQGLEWMGAIYPDNGDTSYNQRFKVRATLTADTSTSTVYMELSSLRSEDTAVYYCARAFTYWGQGTTVTVSS
VL: DIQMTQSPSSLSASVGDRVTITCGASENIYGALNWYQQKPGKAPKLLIYGATNLADGVPSRFSGSGSGTDYTLTISSLQPEDVATYYCQNVLSTPYTFGGGTKVEIKR
notes: humanized IgG1
B15: 3C7-VH2-VL3 (antibody, human IgG1, kappa, V domains shown)
VH: QVQLVQSGAEVKKPGASVKVSCKASGYIFRNYYIHWVRQAPGQGLEWMGAIYPDNGDTSYNQRFKVRATLTADTSTSTVYMELSSLRSEDTAVYYCARAFTYWGQGTTVTVSS
VL: DIQMTQSPSSLSASVGDRVTITCGASENIYGALNWYQRKPGKSPKLLIYGATNLADGVPSRFSGSGSGTDYTLTISSLQPEDVATYYCQNVLSTPYTFGGGTKLEIKR
notes: humanized IgG1
B16: 3C7-VH1-VL1 (antibody, human IgG1, kappa, V domains shown)
VH: QVQLVQSGAEVKKPGASVKVSCKASGYIFTNYYIHWVRQAPGQGLEWMGAIYPDNGDTSYNQRFKVRATLTADTSTSTVYMELSSLRSEDTAVYYCARAFTYWGQGTTVTVSS
VL: DIQMTQSPSSLSASVGDRVTITCGASENIYGALNWYQQKPGKAPKLLIYGATNLADGVPSRFSGSGSGTDYTLTISSLQPEDVATYYCQNVLSTPYTFGGGTKVEIKR
notes: humanized IgG1
B17: 3C7-VH0-VL2 (antibody, human IgG1, kappa, V domains shown)
VH: QVQLVQSGAEVKKPGASVKVSCKASGYTFTNYYIHWVRQAPGQGLEWMGAIYPDNGDTSYNQRFKVRATLTADTSTSTVYMELSSLRSEDTAVYYCARAFTYWGQGTTVTVSS
VL: DIQMTQSPSSLSASVGDRVTITCGASENIYGALNWYQRKPGKAPKLLIYGATNLADGVPSRFSGSGSGTDYTLTISSLQPEDFATYYCQNVLSTPYTFGGGTKLEIKR
notes: humanized IgG1
B18: 3C7-VH1-VL3 (antibody, human IgG1, kappa, V domains shown)
VH: QVQLVQSGAEVKKPGASVKVSCKASGYIFTNYYIHWVRQAPGQGLEWMGAIYPDNGDTSYNQRFKVRATLTADTSTSTVYMELSSLRSEDTAVYYCARAFTYWGQGTTVTVSS
VL: DIQMTQSPSSLSASVGDRVTITCGASENIYGALNWYQRKPGKSPKLLIYGATNLADGVPSRFSGSGSGTDYTLTISSLQPEDVATYYCQNVLSTPYTFGGGTKLEIKR
notes: humanized IgG1
B19: 3C7-VH1-VL0 (antibody, human IgG1, kappa, V domains shown)
VH: QVQLVQSGAEVKKPGASVKVSCKASGYIFTNYYIHWVRQAPGQGLEWMGAIYPDNGDTSYNQRFKVRATLTADTSTSTVYMELSSLRSEDTAVYYCARAFTYWGQGTTVTVSS
VL: DIQMTQSPSSLSASVGDRVTITCRASENIYGALNWYQQKPGKAPKLLIYGATNLADGVPSRFSGSGSGTDFTLTISSLQPEDFATYYCQNVLSTPYTFGGGTKVEIKR
notes: humanized IgG1

Tests used:
[1] = target: T1, human FGFR2b (Kaixia Biotechnology, catalog number FGR-HM1BB) (human, UniProt P21802-3 22-378); assay: BLI, antibody on AHC2 sensor
T1 construct: extracellular domain; bought; also called hFGFR2b; human FGFR2b protein

FGFR2b on KATO III cells = target: T2, FGFR2b on KATO III cells (human, UniProt P21802-3 22-822); assay: flow cytometry, KATO III cells
T2 construct: whole, on cells; also called KATO III cells that overexpress FGFR2b
T2 sequence (P21802 other isoform, or with tags, fused parts or gaps): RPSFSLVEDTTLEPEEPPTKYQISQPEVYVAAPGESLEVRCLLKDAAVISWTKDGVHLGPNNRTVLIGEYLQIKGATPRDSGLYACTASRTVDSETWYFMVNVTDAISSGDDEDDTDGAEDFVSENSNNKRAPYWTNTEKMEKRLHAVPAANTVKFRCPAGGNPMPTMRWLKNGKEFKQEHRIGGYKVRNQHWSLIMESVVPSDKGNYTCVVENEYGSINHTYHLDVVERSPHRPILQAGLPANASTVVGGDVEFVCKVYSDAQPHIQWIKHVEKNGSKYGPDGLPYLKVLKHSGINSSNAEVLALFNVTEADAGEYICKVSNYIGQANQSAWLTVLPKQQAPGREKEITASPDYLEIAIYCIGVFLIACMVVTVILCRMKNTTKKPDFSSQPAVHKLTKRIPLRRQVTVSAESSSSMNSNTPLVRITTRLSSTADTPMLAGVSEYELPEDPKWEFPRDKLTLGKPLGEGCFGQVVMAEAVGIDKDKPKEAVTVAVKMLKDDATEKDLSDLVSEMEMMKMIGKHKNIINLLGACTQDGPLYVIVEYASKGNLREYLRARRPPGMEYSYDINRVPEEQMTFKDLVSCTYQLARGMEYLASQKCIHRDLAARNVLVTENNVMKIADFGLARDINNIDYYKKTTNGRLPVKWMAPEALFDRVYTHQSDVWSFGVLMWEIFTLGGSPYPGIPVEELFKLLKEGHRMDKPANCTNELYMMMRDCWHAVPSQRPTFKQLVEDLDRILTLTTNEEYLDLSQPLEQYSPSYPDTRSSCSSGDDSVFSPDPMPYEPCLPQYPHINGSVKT

T1 sequence (P21802 other isoform, or with tags, fused parts or gaps): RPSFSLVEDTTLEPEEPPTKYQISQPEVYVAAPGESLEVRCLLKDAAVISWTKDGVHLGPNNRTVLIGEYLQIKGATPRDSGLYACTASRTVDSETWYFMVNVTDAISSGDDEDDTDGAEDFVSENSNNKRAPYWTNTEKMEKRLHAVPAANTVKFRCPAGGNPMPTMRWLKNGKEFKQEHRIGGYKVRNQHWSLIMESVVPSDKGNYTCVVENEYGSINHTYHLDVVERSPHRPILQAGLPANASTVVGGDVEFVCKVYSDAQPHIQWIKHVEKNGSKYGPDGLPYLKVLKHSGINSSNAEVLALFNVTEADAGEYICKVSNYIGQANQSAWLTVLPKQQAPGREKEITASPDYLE

Row | Binder | Kd [1] | koff [1] | kon [1] | EC50 (FGFR2b on KATO III cells)
1 | B1 | 2.64 nM | 0.00125 s⁻¹ | 473000 M⁻¹ s⁻¹ | 0.332 µg/mL
2 | B2 | 0.709 nM | 0.000373 s⁻¹ | 526000 M⁻¹ s⁻¹ | 0.231 µg/mL
3 | B3 | 0.743 nM | 0.000399 s⁻¹ | 536000 M⁻¹ s⁻¹ | 0.554 µg/mL
4 | B4 | 1.37 nM | 0.000788 s⁻¹ | 575000 M⁻¹ s⁻¹ | 0.212 µg/mL
5 | B5 | 1.9 nM | 0.000784 s⁻¹ | 412000 M⁻¹ s⁻¹ | 0.337 µg/mL
6 | B6 | 3.13 nM | 0.000935 s⁻¹ | 299000 M⁻¹ s⁻¹ | 0.437 µg/mL
7 | B7 | 1.32 nM | 0.000752 s⁻¹ | 570000 M⁻¹ s⁻¹ | 0.309 µg/mL
8 | B8 | 0.614 nM | 0.000324 s⁻¹ | 527000 M⁻¹ s⁻¹ | 0.357 µg/mL
9 | B9 | 2.71 nM | 0.00115 s⁻¹ | 425000 M⁻¹ s⁻¹ | 0.601 µg/mL
10 | B10 | 13.6 nM | 0.00323 s⁻¹ | 238000 M⁻¹ s⁻¹ | 0.443 µg/mL
11 | B11 | 2.92 nM | 0.000718 s⁻¹ | 246000 M⁻¹ s⁻¹ | 0.302 µg/mL
12 | B12 | 10.4 nM | 0.00305 s⁻¹ | 293000 M⁻¹ s⁻¹ | 0.384 µg/mL
13 | B13 | 1.63 nM | 0.000829 s⁻¹ | 509000 M⁻¹ s⁻¹ | 0.436 µg/mL
14 | B14 | 14 nM | 0.00315 s⁻¹ | 224000 M⁻¹ s⁻¹ | 0.64 µg/mL
15 | B15 | 2.77 nM | 0.000754 s⁻¹ | 272000 M⁻¹ s⁻¹ | 0.572 µg/mL
16 | B16 | 3.24 nM | 0.00131 s⁻¹ | 405000 M⁻¹ s⁻¹ | 0.506 µg/mL
17 | B17 | 11.6 nM | 0.00313 s⁻¹ | 269000 M⁻¹ s⁻¹ | 0.528 µg/mL
18 | B18 | 3.04 nM | 0.00122 s⁻¹ | 403000 M⁻¹ s⁻¹ | 0.565 µg/mL
19 | B19 | 1.89 nM | 0.000955 s⁻¹ | 504000 M⁻¹ s⁻¹ | 0.396 µg/mL
